Data on 2 molecules can be found in patent US20220275088A1 (Dana-Farber, published 2022).

Test [1] addresses human PD-1 on cells (transfected Expi293 cells, PHA-cultured T cells, cells of the Promega PD1-PDL1 bioassay, … (human, UniProt Q15116 25-288)). Description: cell-based or functional assay.
The target in test [2] is T1, mouse PD-1 on transiently transfected Expi293 cells (mouse, UniProt Q02242 25-288).
T1 construct: whole, on cells; also called mPD-1
T1 sequence (looked up): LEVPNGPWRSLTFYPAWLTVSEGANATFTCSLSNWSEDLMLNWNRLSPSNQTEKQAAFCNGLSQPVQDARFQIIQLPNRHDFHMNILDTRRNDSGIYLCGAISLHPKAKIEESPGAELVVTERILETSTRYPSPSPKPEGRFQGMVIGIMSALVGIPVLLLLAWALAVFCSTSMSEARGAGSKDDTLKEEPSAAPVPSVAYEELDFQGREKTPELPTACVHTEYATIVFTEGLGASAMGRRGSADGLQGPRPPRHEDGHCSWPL
In words: flow cytometry on transiently transfected Expi293 cells, anti human Fc-APC. The protocol:
3E5 transiently transfected Expi293 cells were suspended in 100 ul MACS buffer and added to each well. 50 ul of each antibody dilution were then mixed with the cells and the plate was incubated at 4° C. for 30 min. Following incubation, the plate was washed 2× with MACS buffer and then incubated with 1 ul/well anti human Fc-APC (Biolegend #409306). The plate was incubated for 25 min at 4° C. and then washed 3× before running the samples.

Sequence of human PD-1 on cells (transfected Expi293 cells, PHA-cultured T cells, cells of the Promega PD1-PDL1 bioassay, … (Q15116 25-288): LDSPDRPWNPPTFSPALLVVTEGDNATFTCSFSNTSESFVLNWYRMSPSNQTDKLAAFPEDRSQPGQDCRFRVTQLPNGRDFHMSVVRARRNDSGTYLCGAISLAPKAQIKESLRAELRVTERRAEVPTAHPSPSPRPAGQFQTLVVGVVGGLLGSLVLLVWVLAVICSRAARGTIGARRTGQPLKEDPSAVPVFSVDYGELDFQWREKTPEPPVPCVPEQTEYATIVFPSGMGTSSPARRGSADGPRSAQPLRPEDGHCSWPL

B1: P4-B3 IgG1 wild type monomer (antibody, V domains shown)
VH: QVQLVQSGGGLVQPGRSLRLSCAASGFTFDDYAMHWVRQAPGKGLEWVSGISWNSGSIGYADSVKGRFTVSRDNAKNSLYLQMNSLRAEDTAVYYCASDYGDKYYYYGMDVWGKGTTVTVSS
VL: QPGLTQPPSASGTPGQRVTISCSGSSSNIGSNTVNWYQQFPGKAPKLLIFNDNQRPSGVPDRFSASKSGTSASLAISGLQSEDEADYYCAAWDGGLNGRGVFGGGTKLTVLG
For B1, the “fold induction (RLU stimulated/RLU unstimulated), Promega PD1-PDL1 bioassay” value in test [1] is ~0.5 fold of the signal of pembro and nivo.

B2: P4-B3 (Example 8, format not stated) (antibody, V domains shown)
VH: B1 VH
VL: QPGLTQPPSASGTPGQRVTISCSGSSSNIGSNTVNWYQQFPGKAPKLLIFNDNQRPSGVPDRFSASKSGTSASLAISGLQSEDEADYYCAAWDGGLNGRGVFGGGTKLTVL
notes: Detected with anti human Fc-APC, so it carries a human Fc
For the molecule B2, the binding result in test [2] was “binds”.
